Tested on: caspase 3
Assay: ASK1-induced caspase 3 activity assay in BAEC (Ac-DEVD-AMC substrate)
Assay type: cell-based, Bovine
Settings: co-expression with ASK1; n=4, p<0.05
Experimental: Caspase 3 activity assay: Caspase 3 activity was measured with a Caspase 3 fluorescence kit (Sigma) according to the Manufacturer's protocol. Briefly, BAEC were harvested in Caspase 3 lysis buffer (25 mM Hepes, pH 7.4, 5 mM CHAPS, 5 mM DTT) and incubated on ice for 15-20 min followed by a centrifugation at 14,000× g for 10-15 min at 4° C. For each reaction, 5 μl (200 μg) of cell lysate was incubated with 200 μl of 16 μM Caspase 3 peptide substrate acetyl-ASP-Glu-Val-Asp-7 amido-4-methylcoumarin (Ac-DEVD-AMC) in the assay buffer (25 mM Hepes, pH 7.4, 5 mM EDTA, 0.1% CHAPS, 5 mM DTT) in the presence or absence of 100 μM Caspase 3 inhibitor (Ac-DEVD-CHO). The reaction was incubated in the dark for 1-1.5 h and fluorescence was measured in a fluorescence plate reader. The measured fluorescence was used as an arbitrary unit.
Then the effects. of Trx on ASK1-induced caspase 3 activation, a hallmark of the execution of apoptotic cell death (Green D R. Apoptotic pathways: paper wraps stone blunts scissors. Cell. 102:1-4 (2000); Hengartner MO. The biochemistry of apoptosis. Nature. 407:770-6 2000)) was examined. Caspase 3 activity was determined by an in vitro assay using peptide substrate acetyl-ASP-Glu-Val-Asp-7 amido-4-methylcounarin (Ac-DEVD-AMC). Overexpression of ASK1 in BAEC increased caspase 3 activity compared to the control cells (FIG. 6B).

B1: Trx-CS: double-mutant of C32S and C35S of Trx (protein)
chain: MVKQIESKTAFQEALDAAGDKLVVVDFSATWSGPSKMIKPFFHSLSEKYSNVIFLEVDVDDCQDVASECEVKCMPTFQFFKKGQKVGEFSGANKEKLEATINELV
modifications: left off: a dimerising Fc or GST; large carriers; small tags and cut ends
inhibition of ASK1-induced caspase 3 activity: failed to block

Source: patent publication US20060148057A1, “Thioredoxin mutants and uses thereof” (priority 2002, published 2006)
